Source: patent US20190031718A1

What was measured:
TAT-CaM (HIV; human) [1] = assay: BLI (Octet QK), biotinylated TAT-CaM on streptavidin sensors, eNOS as analyte, global 1:1 association-then-dissociation fit
TAT-CaM (HIV; human) [2] = assay: BLI, dissociation upon exposure to EDTA
TAT-CaM (HIV; human) [3] = assay: BLI, dissociation after moving sensors to buffer with 10 mM EDTA (1 µM sample)
TAT-CaM (HIV; human) [4] = assay: BLI (Octet QK), biotinylated TAT-CaM on streptavidin sensors, cargo as analyte, global 1:1 association-then-dissociation fit
CBS-myoglobin [5] = assay: BLI, dissociation in buffer with EDTA
CBS-myoglobin [6] = assay: BLI, sensor exposed to the highest analyte concentration, then dipped into buffer with EDTA
CBS-myoglobin [7] = assay: BLI, biotinylated CPP-adapter on streptavidin sensors, CBS-myoglobin as analyte (1 µM to 63 nM), one-state association-then-dissociation fit
[8] = molecular target: troponin inhibitory peptide-myoglobin; assay: BLI, sensor exposed to the highest analyte concentration, then dipped into buffer with EDTA
[9] = molecular target: troponin inhibitory peptide-myoglobin; assay: BLI, biotinylated TAT-troponin on streptavidin sensors, troponin inhibitory peptide-myoglobin as analyte (1 µM to 63 nM), one-state association-then-dissociation fit

endothelial nitric oxide synthase (enzyme), sequence (P29473 2-1205): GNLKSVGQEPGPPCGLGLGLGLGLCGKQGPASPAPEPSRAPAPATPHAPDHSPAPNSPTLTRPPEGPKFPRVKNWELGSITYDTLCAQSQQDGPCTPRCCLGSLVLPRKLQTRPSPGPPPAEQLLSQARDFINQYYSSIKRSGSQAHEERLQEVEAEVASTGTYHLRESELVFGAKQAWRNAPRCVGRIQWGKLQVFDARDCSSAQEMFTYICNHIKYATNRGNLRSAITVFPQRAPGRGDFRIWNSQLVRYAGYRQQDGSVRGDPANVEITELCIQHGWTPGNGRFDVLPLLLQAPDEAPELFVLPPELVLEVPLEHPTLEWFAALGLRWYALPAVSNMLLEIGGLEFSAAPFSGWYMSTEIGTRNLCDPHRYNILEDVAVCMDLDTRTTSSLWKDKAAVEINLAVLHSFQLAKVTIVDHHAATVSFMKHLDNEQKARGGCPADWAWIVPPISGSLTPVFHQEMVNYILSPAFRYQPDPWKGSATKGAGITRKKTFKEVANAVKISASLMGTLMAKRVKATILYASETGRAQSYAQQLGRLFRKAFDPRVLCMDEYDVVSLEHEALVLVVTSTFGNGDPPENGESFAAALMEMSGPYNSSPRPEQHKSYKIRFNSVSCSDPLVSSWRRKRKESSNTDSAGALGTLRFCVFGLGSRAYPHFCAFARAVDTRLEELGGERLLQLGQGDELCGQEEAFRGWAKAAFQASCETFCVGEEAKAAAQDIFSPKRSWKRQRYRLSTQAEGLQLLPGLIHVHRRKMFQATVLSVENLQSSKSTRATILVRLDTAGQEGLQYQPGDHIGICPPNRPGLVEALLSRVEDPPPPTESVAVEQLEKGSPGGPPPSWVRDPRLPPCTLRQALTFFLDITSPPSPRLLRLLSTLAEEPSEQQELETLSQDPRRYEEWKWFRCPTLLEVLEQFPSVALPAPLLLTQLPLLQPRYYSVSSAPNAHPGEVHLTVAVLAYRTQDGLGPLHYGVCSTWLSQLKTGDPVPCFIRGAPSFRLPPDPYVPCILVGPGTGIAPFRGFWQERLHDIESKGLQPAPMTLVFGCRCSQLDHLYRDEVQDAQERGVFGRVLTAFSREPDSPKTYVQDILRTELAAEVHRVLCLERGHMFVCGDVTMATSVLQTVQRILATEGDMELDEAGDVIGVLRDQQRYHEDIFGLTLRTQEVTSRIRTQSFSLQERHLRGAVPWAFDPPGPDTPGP
CBS-HRP, sequence (P00433 31-338): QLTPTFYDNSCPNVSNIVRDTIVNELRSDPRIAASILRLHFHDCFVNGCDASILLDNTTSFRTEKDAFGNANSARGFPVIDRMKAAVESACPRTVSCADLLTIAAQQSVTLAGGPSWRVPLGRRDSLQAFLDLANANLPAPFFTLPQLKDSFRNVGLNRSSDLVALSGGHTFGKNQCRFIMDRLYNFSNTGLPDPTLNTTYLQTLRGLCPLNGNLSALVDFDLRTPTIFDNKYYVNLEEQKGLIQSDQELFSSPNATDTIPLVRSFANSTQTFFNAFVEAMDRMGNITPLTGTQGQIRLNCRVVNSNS

Substance: endothelial nitric oxide synthase (enzyme)
- Kd (TAT-CaM (HIV; human) [1]): 15 nM
- koff (TAT-CaM (HIV; human) [1]): 0.00018 s⁻¹
- kon (TAT-CaM (HIV; human) [1]): 12000 M⁻¹ s⁻¹

Substance: CBS-β-Gal (enzyme)
- koff (EDTA) (TAT-CaM (HIV; human) [2]): 0.1 s⁻¹
- koff (EDTA) (TAT-CaM (HIV; human) [3]): 0.05 s⁻¹
- Kd (TAT-CaM (HIV; human) [4]): 73 nM
- koff (TAT-CaM (HIV; human) [4]): 0.00067 s⁻¹
- kon (TAT-CaM (HIV; human) [4]): 9200 M⁻¹ s⁻¹

Substance: TAT-CaM 2.0 (from UniProt P0DP23 2-149)
- koff (EDTA) (CBS-myoglobin [5]): 0.1 s⁻¹
- koff (EDTA) (CBS-myoglobin [6]): 0.17 s⁻¹
- kon (CBS-myoglobin [7]): 4900 M⁻¹ s⁻¹

Substance: CBS-HRP (from UniProt P00433 31-338) (enzyme)
- koff (EDTA) (TAT-CaM (HIV; human) [2]): 0.1 s⁻¹
- koff (EDTA) (TAT-CaM (HIV; human) [3]): 0.2 s⁻¹
- Kd (TAT-CaM (HIV; human) [4]): 160 nM
- koff (TAT-CaM (HIV; human) [4]): 0.00028 s⁻¹
- kon (TAT-CaM (HIV; human) [4]): 1700 M⁻¹ s⁻¹

Substance: TAT-troponin
- koff (EDTA) [8]: 0.018 s⁻¹
- kon [9]: 3700 M⁻¹ s⁻¹

Substance: TAT-calmodulin like protein 3 (from UniProt P27482 1-149)
- koff (EDTA) (CBS-myoglobin [5]): 0.1 s⁻¹
- koff (EDTA) (CBS-myoglobin [6]): 0.07 s⁻¹
- Kd (CBS-myoglobin [7]): 29.8 nM
- koff (CBS-myoglobin [7]): 0.00018 s⁻¹
- kon (CBS-myoglobin [7]): 6100 M⁻¹ s⁻¹

Substance: SAP(E)-CaM
- koff (EDTA) (CBS-myoglobin [5]): 0.1 s⁻¹
- koff (EDTA) (CBS-myoglobin [6]): 0.2 s⁻¹
- Kd (CBS-myoglobin [7]): 13.3 nM
- koff (CBS-myoglobin [7]): 0.00013 s⁻¹
- kon (CBS-myoglobin [7]): 9400 M⁻¹ s⁻¹

Substance: CBS-myoglobin
- koff (EDTA) (TAT-CaM (HIV; human) [2]): 0.1 s⁻¹
- koff (EDTA) (TAT-CaM (HIV; human) [3]): 0.09 s⁻¹
- Kd (TAT-CaM (HIV; human) [4]): 0.9 nM
- koff (TAT-CaM (HIV; human) [4]): 5.5e-05 s⁻¹
- kon (TAT-CaM (HIV; human) [4]): 59000 M⁻¹ s⁻¹
